Results published in article PMC8982864 (PLoS Biology, 2022).

Experiments:
[1] = target: CSPG4 D1401-560 401-560 (Homo sapiens) (UniProt Q6UVK1); conditions: cited from earlier work
[2] = target: FZD2 CRD (CRD2) CRD (Homo sapiens) (UniProt Q14332); conditions: cited from earlier work
[3] = target: CSPG4 domain 1 fragment, residues 401-560 (D1401-560), C-terminal GFP (UniProt Q6UVK1); assay: Bio-layer interferometry (Octet Red 96, ForteBio); conditions: pH 7.5; 25°C; PBS (composition not stated)
[4] = target: Frizzled-2 cysteine-rich domain Fc fusion (FZD2-CRD-Fc, 'CRD2') (UniProt Q14332); assay: Bio-layer interferometry (Octet Red 96, ForteBio); conditions: 25°C, PBS (composition not stated)
[5] = target: TcdB-biotin (biotinylated full-length TcdB) (Clostridioides difficile (VPI 10463 …, UniProt P18177 1-2366)); assay: ELISA; conditions: both partners purified

Sequence of CSPG4 domain 1 fragment, residues 401-560 (D1401-560), C-terminal GFP (Q6UVK1 whole entry, the tested form may be a part): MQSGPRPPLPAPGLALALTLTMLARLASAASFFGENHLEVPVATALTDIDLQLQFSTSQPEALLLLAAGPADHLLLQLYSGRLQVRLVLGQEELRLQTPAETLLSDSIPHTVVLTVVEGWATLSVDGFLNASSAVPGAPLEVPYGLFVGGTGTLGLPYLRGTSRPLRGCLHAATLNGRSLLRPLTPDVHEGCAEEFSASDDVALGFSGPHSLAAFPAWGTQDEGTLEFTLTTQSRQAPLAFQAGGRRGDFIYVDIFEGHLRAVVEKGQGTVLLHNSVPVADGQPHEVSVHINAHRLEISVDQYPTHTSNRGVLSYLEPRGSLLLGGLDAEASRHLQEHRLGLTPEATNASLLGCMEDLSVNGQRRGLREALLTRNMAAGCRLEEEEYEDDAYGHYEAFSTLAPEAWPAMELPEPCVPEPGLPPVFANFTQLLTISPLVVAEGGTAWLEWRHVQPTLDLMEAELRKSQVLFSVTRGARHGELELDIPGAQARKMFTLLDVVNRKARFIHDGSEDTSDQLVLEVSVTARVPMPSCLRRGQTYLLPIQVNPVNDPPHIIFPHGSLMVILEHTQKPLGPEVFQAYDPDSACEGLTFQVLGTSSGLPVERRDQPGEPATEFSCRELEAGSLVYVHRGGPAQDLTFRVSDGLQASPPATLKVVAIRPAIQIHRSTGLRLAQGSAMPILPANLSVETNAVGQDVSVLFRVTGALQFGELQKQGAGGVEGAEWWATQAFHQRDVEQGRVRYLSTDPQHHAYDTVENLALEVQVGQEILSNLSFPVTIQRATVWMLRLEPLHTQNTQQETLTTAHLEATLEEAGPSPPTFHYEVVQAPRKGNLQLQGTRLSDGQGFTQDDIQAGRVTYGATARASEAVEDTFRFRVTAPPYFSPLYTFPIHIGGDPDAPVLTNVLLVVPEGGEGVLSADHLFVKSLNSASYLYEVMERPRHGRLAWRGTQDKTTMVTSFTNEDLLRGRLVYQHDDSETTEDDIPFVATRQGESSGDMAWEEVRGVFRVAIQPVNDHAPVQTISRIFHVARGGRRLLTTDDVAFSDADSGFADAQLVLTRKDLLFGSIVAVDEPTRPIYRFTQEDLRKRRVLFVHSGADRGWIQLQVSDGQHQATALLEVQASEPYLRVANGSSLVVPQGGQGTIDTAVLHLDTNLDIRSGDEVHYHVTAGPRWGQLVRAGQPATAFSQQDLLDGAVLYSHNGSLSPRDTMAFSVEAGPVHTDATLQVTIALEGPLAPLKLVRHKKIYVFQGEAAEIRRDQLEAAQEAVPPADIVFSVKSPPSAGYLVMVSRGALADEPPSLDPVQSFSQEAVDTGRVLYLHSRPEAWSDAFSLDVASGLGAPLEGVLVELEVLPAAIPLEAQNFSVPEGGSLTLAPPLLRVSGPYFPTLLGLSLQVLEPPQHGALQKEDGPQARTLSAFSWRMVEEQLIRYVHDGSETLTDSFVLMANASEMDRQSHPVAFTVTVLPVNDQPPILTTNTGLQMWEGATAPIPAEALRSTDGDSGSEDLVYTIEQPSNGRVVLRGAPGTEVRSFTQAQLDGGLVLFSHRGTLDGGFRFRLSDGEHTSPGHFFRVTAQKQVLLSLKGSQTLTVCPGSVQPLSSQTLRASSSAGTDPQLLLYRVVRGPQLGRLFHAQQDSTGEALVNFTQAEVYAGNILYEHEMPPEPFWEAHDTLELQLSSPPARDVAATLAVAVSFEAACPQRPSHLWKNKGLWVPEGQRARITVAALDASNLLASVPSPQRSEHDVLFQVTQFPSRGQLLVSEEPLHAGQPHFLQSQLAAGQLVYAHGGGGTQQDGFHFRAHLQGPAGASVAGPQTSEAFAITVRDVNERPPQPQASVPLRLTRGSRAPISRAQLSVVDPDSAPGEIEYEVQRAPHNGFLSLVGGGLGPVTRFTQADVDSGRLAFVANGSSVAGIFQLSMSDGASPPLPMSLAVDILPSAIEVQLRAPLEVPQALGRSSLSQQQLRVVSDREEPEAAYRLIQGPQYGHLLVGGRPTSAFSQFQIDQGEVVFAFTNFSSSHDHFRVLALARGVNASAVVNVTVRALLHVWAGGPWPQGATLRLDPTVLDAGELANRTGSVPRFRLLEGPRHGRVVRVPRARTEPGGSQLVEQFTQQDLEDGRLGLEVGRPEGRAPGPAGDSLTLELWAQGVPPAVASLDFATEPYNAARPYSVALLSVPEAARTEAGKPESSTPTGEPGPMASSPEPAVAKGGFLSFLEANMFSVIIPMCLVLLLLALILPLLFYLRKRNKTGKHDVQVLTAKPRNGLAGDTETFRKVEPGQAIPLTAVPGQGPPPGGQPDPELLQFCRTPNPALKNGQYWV

In the case of TcdB (from UniProt P18177), the Kd [1] is listed as 0.029 µM and the Kd [2] is listed as 0.019 µM.

In the case of “Toxin B (TcdB), full length, C-terminal 6xHis”, the KD [3] is reported as “approximately 10 nM”, the KD ([4]; pH 5) is reported as “approximately 1 μM” and the KD ([4]; pH 7.5) is reported as “approximately 12 nM”.

B1: CSPG4 domain 1 fragment D1_(401-560) with C-terminal GFP tag (domain or fragment, UniProt Q6UVK1 401-560, looked up)
chain: LAPEAWPAMELPEPCVPEPGLPPVFANFTQLLTISPLVVAEGGTAWLEWRHVQPTLDLMEAELRKSQVLFSVTRGARHGELELDIPGAQARKMFTLLDVVNRKARFIHDGSEDTSDQLVLEVSVTARVPMPSCLRRGQTYLLPIQVNPVNDPPHIIFPHG
notes: not shown: GFP, C-terminal, kept
B1: binds [5].
